In article PMC8534323:

T1: enolase (Eno1) (C. albicans (endogenous in strain ATCC 10231)), P30575
T1 chain: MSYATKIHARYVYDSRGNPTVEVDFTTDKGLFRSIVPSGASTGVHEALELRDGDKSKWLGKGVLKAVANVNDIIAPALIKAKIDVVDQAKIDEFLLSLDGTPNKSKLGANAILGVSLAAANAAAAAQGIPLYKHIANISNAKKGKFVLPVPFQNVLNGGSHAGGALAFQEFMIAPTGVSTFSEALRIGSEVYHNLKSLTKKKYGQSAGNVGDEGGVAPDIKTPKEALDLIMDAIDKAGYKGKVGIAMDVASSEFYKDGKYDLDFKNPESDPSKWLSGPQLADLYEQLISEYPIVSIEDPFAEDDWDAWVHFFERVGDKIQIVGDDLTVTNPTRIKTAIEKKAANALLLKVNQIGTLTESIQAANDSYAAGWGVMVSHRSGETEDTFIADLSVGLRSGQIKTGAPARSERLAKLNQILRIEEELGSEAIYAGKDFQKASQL

T2: Phosphoglycerate mutase 1 (Gpm1), recombinant (C. albicans), P82612
T2 chain: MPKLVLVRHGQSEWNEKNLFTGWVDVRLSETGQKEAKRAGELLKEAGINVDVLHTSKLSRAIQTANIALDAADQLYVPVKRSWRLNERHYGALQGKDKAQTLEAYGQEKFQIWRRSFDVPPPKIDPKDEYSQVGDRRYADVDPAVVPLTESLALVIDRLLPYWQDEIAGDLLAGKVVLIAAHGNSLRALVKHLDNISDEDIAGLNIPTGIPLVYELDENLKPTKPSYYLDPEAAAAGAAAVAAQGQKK

B1: human neutrophil elastase (HNE), P08246 30-267 (enzyme)
chain: IVGGRRARPHAWPFMVSLQLRGGHFCGATLIAPNFVMSAAHCVANVNVRAVRVVLGAHNLSRREPTRQVFAVQRIFENGYDPVNLLNDIVILQLNGSATINANVQVAQLPAQGRRLGNGVQCLAMGWGLLGRNRGIASVLQELNVTVVTSLCRRSNVCTLVRGRQAGVCFGDSGSPLVCNGLIHGIASFVRGGCASGLYPDAFAPVAQFVNWIDSIIQRSEDNPCPHPRDPDPASRTH
modifications: here or on the partner: sulfo-SBED crosslinker in the cross-linking experiment; in flow cytometry preincubated or not with 10 µM N-(Methoxysuccinyl)-Ala-Ala-Pro-Val-chloromethyl ketone
B2: lactotransferrin (LF), P02788 20-710 (natural protein)
chain: GRRRSVQWCAVSQPEATKCFQWQRNMRKVRGPPVSCIKRDSPIQCIQAIAENRADAVTLDGGFIYEAGLAPYKLRPVAAEVYGTERQPRTHYYAVAVVKKGGSFQLNELQGLKSCHTGLRRTAGWNVPIGTLRPFLNWTGPPEPIEAAVARFFSASCVPGADKGQFPNLCRLCAGTGENKCAFSSQEPYFSYSGAFKCLRDGAGDVAFIRESTVFEDLSDEAERDEYELLCPDNTRKPVDKFKDCHLARVPSHAVVARSVNGKEDAIWNLLRQAQEKFGKDKSPKFQLFGSPSGQKDLLFKDSAIGFSRVPPRIDSGLYLGSGYFTAIQNLRKSEEEVAARRARVVWCAVGEQELRKCNQWSGLSEGSVTCSSASTTEDCIALVLKGEADAMSLDGGYVYTAGKCGLVPVLAENYKSQQSSDPDPNCVDRPVEGYLAVAVVRRSDTSLTWNSVKGKKSCHTAVDRTAGWNIPMGLLFNQTGSCKFDEYFSQSCAPGSDPRSNLCALCIGDEQGENKCVPNSNERYYGYTGAFRCLAENAGDVAFVKDVTVLQNTDGNNNEAWAKDLKLADFALLCLDGKRKPVTEARSCHLAMAPNHAVVSRMDKVERLKQVLLHQQAKFGRNGSDCPDKFCLFQSETKNLLFNDNTECLARLHGKTTYEKYLGPQYVAGITNLKKCSTSPLLEACEFLRK
modifications: here or on the partner: NHS-fluorescein label in flow cytometry; sulfo-SBED crosslinker in the cross-linking experiment

Experiments:
[1] = target: T1, enolase (Eno1) (C. albicans (endogenous …)); assay: SPR; settings: remark: other sources report otherwise
[2] = target: T2, Phosphoglycerate mutase 1 (Gpm1), …; assay: SPR; settings: remark: other sources report otherwise

| Binder | Kd [1] [nM] | Kd [2] [nM] |
| --- | --- | --- |
| B1 | 36.1 |  |
| B2 | 72.2 | 21.4 |
